This is an account of results in publication PMC9669022.

Experiment [1] has as its target porcine brain tubulin (αβ-tubulin dimer) (porcine) (UniProt Q2XVP4).
For experiment [2] the target is unchanged. This is another data set of the same source.
Experiment [3] has the same target. This is another data set of the same source.

In the case of Pbkinesin-8B-MD (domain or fragment), in experiment [1], the Km of the MT-stimulated ATPase (GMPCPP-MTs, NADH-coupled assay) came to 2.5 µM. For the same substance, the Km of the tubulin-stimulated ATPase (unpolymerised tubulin dimer, NADH-coupled assay) in experiment [2] was found to be 7.6 µM.

Regarding “Pbkinesin-8B-MD-L2^KIF5B (domain or fragment)”, the Km of the GMPCPP-MT-stimulated ATPase, fold change against WT in experiment [3] amounted to 2 fold.

Regarding “Pbkinesin-8B-MD-L12^KIF5B (domain or fragment)”, in experiment [3], the KmMT of the GMPCPP-MT-stimulated ATPase, fold change against WT came to 20 fold.
